{"source": "paper PMC9897460", "key": {"5FAM-NRIP1_1068 peptide": {"molecular_target": "5FAM-NRIP1_1068 peptide", "assay": "fluorescence polarisation"}, "[1]": {"molecular_target": "5FAM-PGC1α_144 coactivator peptide", "assay": "fluorescence polarisation"}}}
{"substance": "PPARγ ligand binding domain (LBD), delipidated (domain or fragment)", "values": [{"measurement": "Kd", "setting": "5FAM-NRIP1_1068 peptide", "value": 8.24, "unit": "µM"}, {"measurement": "Kd", "setting": "[1]", "value": 2.01, "unit": "µM"}]}
